Sequences and labels used below:
B3: AR DNA-binding domain (AR DBD) (receptor)
chain: KTCLICGDEASGCHYGALTCGSCKVFFKRAAEGKQKYLCASRNDCTIDKFRRKNCPSCRLRKCYEAG
notes: also called GAL4-AR-DBD
B4: human checkpoint protein hRad9, full length (other)
chain: MKCLVTGGNVKVLGKAVHSLSRIGDELYLEPLEDGLSLRTVNSSRSAYACFLFAPLFFQQYQAATPGQDLLRCKILMKSFLSVFRSLAMLEKTVEKCCISLNGRSSRLVVQLHCKFGVRKTHNLSFQDCESLQAVFDPASCPHMLRAPARVLGEAVLPFSPALAEVTLGIGRGRRVILRSYHEEEADSTAKAMVTEMCLGEEDFQQLQAQEGVAITFCLKEFRGLLSFAESANLNLSIHFDAPGRPAIFTIKDSLLDGHFVLATLSDTDSHSQDLGSPERHQPVPQLQAHSTPHPDDFANDDIDSYMIAMETTIGNEGSRVLPSISLSPGPQPPKSPGPHSEEEDEAEPSTVPGTPPPKKFRSLFFGSILAPVRSPQGPSPVLAEDSEGEG
notes: Used as GST-hRad9 on beads, as GAL4 DBD fusion (mammalian two-hybrid), as Flag-hRad9 in 293T cells and as endogenous hRad9 of CWR22R cells; also called FL-hRad9; GST-hRad9

In assay [1] the target is T1, ARA67 clone of the CytoTrap screen, amino acids 20-585 of PAT1 (pMyr-ARA67) (Homo sapiens, UniProt Q92624 20-585).
T1 construct: The clone matched the DNA encoding aa 20-585 of PAT1 at 99.6% identity; also called pMyr-ARA67/PAT1
T1 sequence: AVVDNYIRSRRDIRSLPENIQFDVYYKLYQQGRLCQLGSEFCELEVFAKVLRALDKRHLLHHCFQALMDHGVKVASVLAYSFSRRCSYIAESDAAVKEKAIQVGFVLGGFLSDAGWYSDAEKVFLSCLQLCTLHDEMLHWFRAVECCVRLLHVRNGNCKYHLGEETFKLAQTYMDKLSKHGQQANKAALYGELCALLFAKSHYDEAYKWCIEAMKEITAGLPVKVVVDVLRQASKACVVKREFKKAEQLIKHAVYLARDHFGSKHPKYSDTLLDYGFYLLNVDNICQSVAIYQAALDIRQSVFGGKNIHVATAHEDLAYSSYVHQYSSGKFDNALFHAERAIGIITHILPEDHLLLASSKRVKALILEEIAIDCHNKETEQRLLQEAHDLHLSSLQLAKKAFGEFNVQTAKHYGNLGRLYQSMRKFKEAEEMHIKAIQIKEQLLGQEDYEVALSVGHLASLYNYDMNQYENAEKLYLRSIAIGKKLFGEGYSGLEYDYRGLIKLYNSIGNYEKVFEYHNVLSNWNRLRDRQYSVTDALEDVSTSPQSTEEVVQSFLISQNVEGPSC
The experiment in a line: CytoTrap Sos yeast two-hybrid, growth of cdc25H on SD/Gal(-LU) at 37° C.
Procedure: The bait and library constructs were co-transformed into yeast strain cdc25H. […] Only the clones that grow out on SD/Gal (−LU) plates but not on SD/Glu (−LU) plates at 37° C. are interaction positive ones.

For assay [2], the target named is T2, vitamin D receptor (VDR) (UniProt P11473 1-427).
T2 construct: also called VP16-VDR; VP 16-VDR
T2 sequence: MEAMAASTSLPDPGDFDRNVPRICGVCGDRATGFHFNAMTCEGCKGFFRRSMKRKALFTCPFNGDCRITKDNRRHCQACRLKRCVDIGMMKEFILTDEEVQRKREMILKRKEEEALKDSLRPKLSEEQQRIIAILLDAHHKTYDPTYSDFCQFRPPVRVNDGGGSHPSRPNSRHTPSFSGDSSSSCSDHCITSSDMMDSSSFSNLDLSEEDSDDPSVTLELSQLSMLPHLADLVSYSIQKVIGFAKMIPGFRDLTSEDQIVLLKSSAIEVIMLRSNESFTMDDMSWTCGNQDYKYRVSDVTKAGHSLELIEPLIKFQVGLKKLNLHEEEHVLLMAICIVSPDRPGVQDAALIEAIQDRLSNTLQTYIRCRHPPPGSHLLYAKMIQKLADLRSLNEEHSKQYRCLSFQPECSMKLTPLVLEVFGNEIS
Nature of the assay: mammalian two-hybrid in PC-3 cells, pM-f-hRad9 + VP16-VDR.

Assay [3] addresses T3, estrogen receptor α (ERα) (UniProt P03372 1-595).
T3 construct: also called VP16-ERα; ERcc
T3 sequence: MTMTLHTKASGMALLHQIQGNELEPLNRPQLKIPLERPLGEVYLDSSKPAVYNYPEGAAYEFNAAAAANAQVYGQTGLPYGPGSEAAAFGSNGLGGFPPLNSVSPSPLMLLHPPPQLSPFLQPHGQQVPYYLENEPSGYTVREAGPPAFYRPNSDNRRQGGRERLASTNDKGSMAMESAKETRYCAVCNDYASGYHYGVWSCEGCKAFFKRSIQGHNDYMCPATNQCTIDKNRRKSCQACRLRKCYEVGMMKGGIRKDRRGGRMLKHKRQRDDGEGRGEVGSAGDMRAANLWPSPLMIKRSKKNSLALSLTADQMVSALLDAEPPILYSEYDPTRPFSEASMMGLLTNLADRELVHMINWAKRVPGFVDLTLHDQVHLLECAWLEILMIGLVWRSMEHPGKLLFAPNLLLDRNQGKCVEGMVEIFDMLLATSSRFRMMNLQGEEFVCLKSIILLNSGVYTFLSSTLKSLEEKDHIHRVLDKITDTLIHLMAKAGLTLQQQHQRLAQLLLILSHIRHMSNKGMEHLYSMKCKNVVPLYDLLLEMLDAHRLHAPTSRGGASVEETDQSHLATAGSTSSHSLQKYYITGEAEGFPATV
The experiment in a line: mammalian two-hybrid in PC-3 cells, pM-f-hRad9 + VP16-ERα, in the presence of estrogen.

Assay [4] has as its target T4, AR DBD-LBD (human, UniProt P10275 557-920).
T4 sequence: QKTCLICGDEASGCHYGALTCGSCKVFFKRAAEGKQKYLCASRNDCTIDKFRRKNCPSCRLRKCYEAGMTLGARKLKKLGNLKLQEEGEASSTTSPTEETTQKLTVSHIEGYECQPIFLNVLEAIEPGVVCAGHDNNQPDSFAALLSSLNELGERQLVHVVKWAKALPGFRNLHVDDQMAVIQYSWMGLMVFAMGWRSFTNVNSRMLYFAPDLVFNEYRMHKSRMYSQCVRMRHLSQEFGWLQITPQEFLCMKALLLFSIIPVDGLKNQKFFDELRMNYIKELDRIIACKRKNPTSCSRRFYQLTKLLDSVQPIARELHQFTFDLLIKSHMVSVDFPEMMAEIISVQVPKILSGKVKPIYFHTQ
The experiment in a line: cell-based or functional assay.

Assay [5] has as its target B3. The experiment in a line: yeast two-hybrid (AH109), GAL4-AR-DBD + f-hRad9 fused to an activation domain, 10 nM DHT.
Assay [6] addresses B4. The experiment in a line: GST pull-down: GST-hRad9 with 35S-labeled AR domains.
The target in assay [7] is T5, VP16-AR containing the residues 37 to 919 (human, UniProt P10275 37-920).
T5 construct: also called pCMX-VP16-AR; full length AR fused to VP16
T5 sequence: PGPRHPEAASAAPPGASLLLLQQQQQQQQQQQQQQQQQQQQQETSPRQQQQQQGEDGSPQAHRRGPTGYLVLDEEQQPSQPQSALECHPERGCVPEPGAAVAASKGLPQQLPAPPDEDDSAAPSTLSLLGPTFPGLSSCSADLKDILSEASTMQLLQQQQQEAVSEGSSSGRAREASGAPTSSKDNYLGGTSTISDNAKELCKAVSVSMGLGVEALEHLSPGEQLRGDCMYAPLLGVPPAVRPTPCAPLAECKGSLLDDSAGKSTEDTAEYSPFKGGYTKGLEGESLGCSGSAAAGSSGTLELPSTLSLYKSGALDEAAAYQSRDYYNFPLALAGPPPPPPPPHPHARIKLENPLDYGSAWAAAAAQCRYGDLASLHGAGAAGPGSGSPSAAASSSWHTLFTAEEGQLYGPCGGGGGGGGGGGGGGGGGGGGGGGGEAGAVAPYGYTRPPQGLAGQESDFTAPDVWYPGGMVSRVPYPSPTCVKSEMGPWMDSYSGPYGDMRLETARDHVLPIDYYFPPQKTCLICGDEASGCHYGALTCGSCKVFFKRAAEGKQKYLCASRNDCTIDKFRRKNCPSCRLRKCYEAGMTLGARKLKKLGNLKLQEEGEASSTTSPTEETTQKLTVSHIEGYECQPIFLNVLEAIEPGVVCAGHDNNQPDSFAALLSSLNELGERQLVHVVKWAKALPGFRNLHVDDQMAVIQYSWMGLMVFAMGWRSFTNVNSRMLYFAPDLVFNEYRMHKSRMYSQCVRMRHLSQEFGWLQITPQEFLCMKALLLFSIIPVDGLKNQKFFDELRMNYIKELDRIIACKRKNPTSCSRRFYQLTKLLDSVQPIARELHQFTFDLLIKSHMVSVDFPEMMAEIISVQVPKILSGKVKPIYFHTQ
The experiment in a line: mammalian two-hybrid in PC-3 cells, GAL4 DBD-FL-hRad9 + VP16-AR; inhibited by hydroxyflutamide.

The target in assay [8] is T6, AR N-terminus, full length ARN (ARN1-556) (human, UniProt P10275 1-557).
T6 sequence: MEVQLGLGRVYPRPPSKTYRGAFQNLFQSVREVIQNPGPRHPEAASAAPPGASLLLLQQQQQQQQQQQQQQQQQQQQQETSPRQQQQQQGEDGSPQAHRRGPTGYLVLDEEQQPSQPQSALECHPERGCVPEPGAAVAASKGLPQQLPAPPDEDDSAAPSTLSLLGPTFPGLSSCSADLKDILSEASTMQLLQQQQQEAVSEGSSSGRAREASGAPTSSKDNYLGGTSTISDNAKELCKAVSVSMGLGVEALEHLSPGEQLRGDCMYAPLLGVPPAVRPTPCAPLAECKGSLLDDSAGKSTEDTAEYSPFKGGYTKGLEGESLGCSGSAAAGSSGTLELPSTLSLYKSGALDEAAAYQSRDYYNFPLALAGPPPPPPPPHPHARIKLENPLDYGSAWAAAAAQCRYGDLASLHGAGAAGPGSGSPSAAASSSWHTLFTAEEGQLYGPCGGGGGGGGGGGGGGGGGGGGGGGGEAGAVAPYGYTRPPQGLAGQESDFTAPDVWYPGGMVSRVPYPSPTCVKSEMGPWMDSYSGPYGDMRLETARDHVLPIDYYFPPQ
Nature of the assay: GST pull-down: GST-hRad9 with 35S-labeled AR domains.

B1: testicular receptor 2 (TR2) (receptor)
chain: MATIEEIAHQIIEQQMGEIVTEQQTGQKIQIVTALDHNTQGKQFILTNHDGSTPSKVILARQDSTPGKVFLTTPDAAGVNQLFFTTPDLSAQHLQLLTDNSPDQGPNKVFDLCVVCGDKASGRHYGAVTCEGCKGFFKRSIRKNLVYSCRGSKDCIINKHHRNRCQYCRLQRCIAFGMKQDSVQCERKPIEVSREKSSNCAASTEKIYIRKDLRSPLTATPTFVTDSESTRSTGLLDSGMFMNIHPSGVKTESAVLMTSDKAESCQGDLSTLANVVTSLANLGKTKDLSQNSNEMSMIESLSNDDTSLCEFQEMQTNGDVSRAFDTLAKALNPGESTACQSSVAGMEGSVHLITGDSSINYTEKEGPLLSDSHVAFRLTMPSPMPEYLNVHYIGESASRLLFLSMHWALSIPSFQALGQENSISLVKAYWNELFTLGLAQCWQVMNVATILATFVNCLHNSLQQDAKVIAALIHFTRRAITDL
notes: hSos fusion (pSos-TR2) in yeast; also called pSos-TR2
B1: the binding result in assay [1] is on record as “no binding”.

B2: f-hRad9, fragment of hRad9 isolated from yeast (aa 327-391) (other)
chain: LSPGPQPPKSPGPHSEEEDEAEPSTVPGTPPPKKFRSLFFGSILAPVRSPQGPSPVLAEDSEGEG
With B2, the binding result in assay [2], in assay [3] and in assay [5] was “no binding” throughout. In assay [4], the “reporter activity (yeast two-hybrid, liquid β-gal assay, 10 nM DHT)” value worked out at 10 fold.

B3: the binding result in assay [6] is recorded as “no binding”.

Take B4: the binding result in assay [7] is on record as “binds”; in assay [8], “no binding”.

The values above are taken from US20080050387A1 (published 2008).
